Test results published in the Immune Epitope Database (IEDB).

What was measured:
Assay in all cases: IEDB peptide-MHC binding, purified MHC/competitive/radioactivity; ≥ and ≤ were set here for values at or beyond the usual limits of such assays
Conditions in all cases: source organism: Bordetella pertussis
HLA-B*44:03 = target: HLA-B*44:03
HLA-A*02:01 = target: HLA-A*02:01
HLA-B*35:01 = target: HLA-B*35:01
HLA-B*53:01 = target: HLA-B*53:01
HLA-B*57:01 = target: HLA-B*57:01
HLA-B*07:02 = target: HLA-B*07:02

AESNALSKR
IC50 (HLA-B*44:03): 44.2 µM

AGLAGPSAV
IC50 (HLA-A*02:01): ≥ 78.1 µM

DAKHDLTVT
IC50 (HLA-B*35:01): 69.9 µM

DENGKPQTY
IC50 (HLA-B*44:03): 11.5 µM

FAISAYALK
IC50 (HLA-B*53:01): 4.42 µM

FALYDGTYL
IC50 (HLA-B*35:01): 20.9 µM

GLDVQQGTV
IC50 (HLA-A*02:01): 60 µM

KAGTIAAPW
IC50 (HLA-B*57:01): 0.297 µM

KEDVDAAQI
IC50 (HLA-B*44:03): 34.2 µM

LAAVLVNPH
IC50 (HLA-B*35:01): 69.9 µM

QSIVEAPEL
IC50 (HLA-A*02:01): 46 µM

TGDGGGHTD
IC50 (HLA-B*53:01): 69.9 µM

TPLGSLFAI
IC50 (HLA-B*35:01): 1.34 µM | IC50 (HLA-B*53:01): 8.19 µM

YATNPQTQL
IC50 (HLA-B*07:02): 69.6 µM

YEYIWGLYP
IC50 (HLA-B*44:03): 8.39 µM

YEYSKGPKL
IC50 (HLA-B*44:03): 47.7 µM
